# Source: PMC5016661 (The Journal of Biological Chemistry, 2016)
# B1: fragaceatoxin C (natural protein)
# chain: ADVAGAVIDGAGLGFDVLKTVLEALGNVKRKIAVGIDNESGKTWTAMNTYFRSGTSDIVLPHKVAHGKALLYNGQKNRGPVATGVVGVIAYSMSDGNTLAVLFSVPYDYNWYSNWWNVRVYKGQKRADQRMYEELYYHRSPFRGDNGWHSRGLGYGLKSRGFMNSSGHAILEIHVTKA
# notes: also called FraC; WT FraC; source: E. coli BL21 (DE3), purified (ion-exchange and size-exclusion chromatography)
# Molecular target: the molecule itself
# Test: cryo-EM structure; FraC (5 uM) incubated with DOPC LUVs at a protein/lipid ratio of 1:160 for 30 min; vitrified; 1,562 particles; oligomer bound to the vesicles (non-lytic, prepore)
protein,measurement,value
B1,stoichiometry N,8
